These results are taken from article PMC3679265 (Biochimica et biophysica acta, 2013).

The series “cross-linking” concerns the molecule itself. The series can be described thus: cross-linking.
The series “SEC” concerns the molecule itself. The series can be described thus: SEC. A general note: Size exclusion chromatography separates by hydrodynamic size, large species first.

Substitutions are numbered along the chain they refer to. Numbers in names are those of the source.

B1: human galactose-1-phosphate uridylyltransferase p.F171S (enzyme, UniProt P07902 1-379, looked up)
chain: MSRSGTDPQQRQQASEADAAAATFRANDHQHIRYNPLQDEWVLVSAHRMKRPWQGQVEPQLLKTVPRHDPLNPLCPGAIRANGEVNPQYDSTFLFDNDFPALQPDAPSPGPSDHPLFQAKSARGVCKVMCFHPWSDVTLPLMSVPEIRAVVDAWASVTEELGAQYPWVQISENKGAMMGCSNPHPHCQVWASSFLPDIAQREERSQQAYKSQHGEPLLMEYSRQELLRKERLVLTSEHWLVLVPFWATWPYQTLLLPRRHVRRLPELTPAERDDLASIMKKLLTKYDNLFETSFPYSMGWHGAPTGSEAGANWNHWQLHAHYYPPLLRSATVRKFMVGYEMLAQAQRDLTPEQAAERLRALPEVHYHLGQKDRETATIA
Broadly, the stoichiometry N is a count of units in the complex or per binding partner. On to B1, for which the “stoichiometry N” value in the series “cross-linking” worked out at 2.

B2: human galactose-1-phosphate uridylyltransferase p.L74P (enzyme, UniProt P07902 1-379, looked up)
chain: B1 chain with L74P, S171F
With B2, the “stoichiometry N” value in “SEC” was determined as 2.

B3: human galactose-1-phosphate uridylyltransferase p.D28Y (enzyme, UniProt P07902 1-379, looked up)
chain: B1 chain with D28Y, S171F
For B3, the “stoichiometry N” value in “SEC” turned out to be 2.

B4: human galactose-1-phosphate uridylyltransferase p.R333G (enzyme, UniProt P07902 1-379, looked up)
chain: B1 chain with S171F, R333G
As for B4, in the series “cross-linking”, the “stoichiometry N” value is 2.

B5: human galactose-1-phosphate uridylyltransferase p.F194L (enzyme, UniProt P07902 1-379, looked up)
chain: B1 chain with S171F, F194L
Turning to B5, the “stoichiometry N” value in “cross-linking” came out at 2.
